Tested on: Escherichia coli TOP10
Assay: shrunken log2 fold change of peptide-encoding DNA abundance (4.5 h post-induction vs induction); higher = less antimicrobial activity (less host growth inhibition)
Conditions: time post-induction: 4.5 h; library: site-saturation at positions 5, 18, 19, 20
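Further: peptides expressed intracellularly from a pBAD plasmid library in pooled LB shake-flask culture, induced with 0.3% L-arabinose, DNA abundance read by NGS, three biological replicates, DESeq2 with apeglm shrinkage.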

Sequence | shrunken log2 fold change
RRIRDRPPRLPRPRPRPADMPRP | -0.119
RRIRDRPPRLPRPRPRPADPPRP | -0.155
RRIRDRPPRLPRPRPRPADSPRP | 0.157
RRIRDRPPRLPRPRPRPAEDPRP | -0.017
RRIRDRPPRLPRPRPRPAEEPRP | 0.168
RRIRDRPPRLPRPRPRPAEKPRP | 0.0328
RRIRDRPPRLPRPRPRPAELPRP | 0.0334
RRIRDRPPRLPRPRPRPAEPPRP | 0.288
RRIRDRPPRLPRPRPRPAFWPRP | -0.0581
RRIRDRPPRLPRPRPRPAFYPRP | -0.305
RRIRDRPPRLPRPRPRPAGYPRP | 0.528
RRIRDRPPRLPRPRPRPAKQPRP | 0.181
RRIRDRPPRLPRPRPRPAKYPRP | -0.315
RRIRDRPPRLPRPRPRPAMIPRP | -0.129
RRIRDRPPRLPRPRPRPAPEPRP | 0.225
RRIRDRPPRLPRPRPRPAPLPRP | 0.445
RRIRDRPPRLPRPRPRPAQGPRP | 0.00228
RRIRDRPPRLPRPRPRPAQIPRP | 0.263
RRIRDRPPRLPRPRPRPAQQPRP | -0.0267
RRIRDRPPRLPRPRPRPAQSPRP | 0.216
RRIRDRPPRLPRPRPRPARTPRP | 0.364
RRIRDRPPRLPRPRPRPATPPRP | 0.276
RRIRDRPPRLPRPRPRPAVCPRP | 1.19
RRIRDRPPRLPRPRPRPAVYPRP | -0.097
RRIRDRPPRLPRPRPRPAWSPRP | 0.168

Sequence | shrunken log2 fold change
RRIRDRPPRLPRPRPRPAYLPRP | -0.011
RRIRDRPPRLPRPRPRPAYNPRP | -0.764
RRIRDRPPRLPRPRPRPAYTPRP | -0.00595
RRIRDRPPRLPRPRPRPCAKPRP | 0.244
RRIRDRPPRLPRPRPRPCCMPRP | 0.125
RRIRDRPPRLPRPRPRPCHFPRP | -0.105
RRIRDRPPRLPRPRPRPCHQPRP | -0.328
RRIRDRPPRLPRPRPRPCKMPRP | -0.0957
RRIRDRPPRLPRPRPRPCMIPRP | 0.28
RRIRDRPPRLPRPRPRPCNNPRP | -0.931
RRIRDRPPRLPRPRPRPCNPPRP | -0.13
RRIRDRPPRLPRPRPRPCRDPRP | -0.106
RRIRDRPPRLPRPRPRPCSDPRP | 0.0293
RRIRDRPPRLPRPRPRPCSHPRP | -0.0198
RRIRDRPPRLPRPRPRPCSPPRP | 0.0779
RRIRDRPPRLPRPRPRPCVHPRP | 0.412
RRIRDRPPRLPRPRPRPCVTPRP | 0.163
RRIRDRPPRLPRPRPRPCWLPRP | 0.127
RRIRDRPPRLPRPRPRPDAHPRP | -0.036
RRIRDRPPRLPRPRPRPDALPRP | 0.306
RRIRDRPPRLPRPRPRPDCIPRP | 0.438
RRIRDRPPRLPRPRPRPDCQPRP | -0.00973
RRIRDRPPRLPRPRPRPDDMPRP | 0.155
RRIRDRPPRLPRPRPRPDEKPRP | 0.0291
RRIRDRPPRLPRPRPRPDFFPRP | 0.195

Sequence | shrunken log2 fold change
RRIRDRPPRLPRPRPRPDFPPRP | 0.0974
RRIRDRPPRLPRPRPRPDFRPRP | -0.0735
RRIRDRPPRLPRPRPRPDGFPRP | 0.0291
RRIRDRPPRLPRPRPRPDIMPRP | 0.0348
RRIRDRPPRLPRPRPRPDINPRP | 0.47
RRIRDRPPRLPRPRPRPDIRPRP | -0.00151
RRIRDRPPRLPRPRPRPDKSPRP | -0.119
RRIRDRPPRLPRPRPRPDLDPRP | 0.632
RRIRDRPPRLPRPRPRPDLEPRP | 0.0526
RRIRDRPPRLPRPRPRPDLMPRP | 0.043
RRIRDRPPRLPRPRPRPDMHPRP | 0.633
RRIRDRPPRLPRPRPRPDNDPRP | 0.212
RRIRDRPPRLPRPRPRPDNVPRP | -0.273
RRIRDRPPRLPRPRPRPDPIPRP | 0.278
RRIRDRPPRLPRPRPRPDSVPRP | -0.0148
RRIRDRPPRLPRPRPRPDTHPRP | 0.17
RRIRDRPPRLPRPRPRPDVRPRP | 0.0212
RRIRDRPPRLPRPRPRPDWLPRP | 0.34
RRIRDRPPRLPRPRPRPDYNPRP | -0.204
RRIRDRPPRLPRPRPRPECRPRP | 1.03
RRIRDRPPRLPRPRPRPEDCPRP | -0.0123
RRIRDRPPRLPRPRPRPEDFPRP | 0.427
RRIRDRPPRLPRPRPRPEDIPRP | 0.0238
RRIRDRPPRLPRPRPRPEEDPRP | 0.012
RRIRDRPPRLPRPRPRPEFNPRP | 0.574

Sequence | shrunken log2 fold change
RRIRDRPPRLPRPRPRPEIGPRP | 0.765
RRIRDRPPRLPRPRPRPEKQPRP | 0.0247
RRIRDRPPRLPRPRPRPELKPRP | -0.00616
RRIRDRPPRLPRPRPRPEMHPRP | 0.891
RRIRDRPPRLPRPRPRPEMKPRP | 0.0494
RRIRDRPPRLPRPRPRPENQPRP | 0.351
RRIRDRPPRLPRPRPRPENSPRP | 0.0647
RRIRDRPPRLPRPRPRPEPAPRP | 0.883
RRIRDRPPRLPRPRPRPETAPRP | 1.15
RRIRDRPPRLPRPRPRPEWGPRP | 0.0825
RRIRDRPPRLPRPRPRPEWYPRP | 0.0233
RRIRDRPPRLPRPRPRPEYGPRP | 0.305
RRIRDRPPRLPRPRPRPFAKPRP | -0.0729
RRIRDRPPRLPRPRPRPFCHPRP | -0.00713
RRIRDRPPRLPRPRPRPFDGPRP | -0.192
RRIRDRPPRLPRPRPRPFDTPRP | -0.329
RRIRDRPPRLPRPRPRPFEIPRP | -0.0367
RRIRDRPPRLPRPRPRPFENPRP | 0.115
RRIRDRPPRLPRPRPRPFETPRP | -0.0134
RRIRDRPPRLPRPRPRPFGAPRP | 0.191
RRIRDRPPRLPRPRPRPFGIPRP | 0.0183
RRIRDRPPRLPRPRPRPFIIPRP | -0.348
RRIRDRPPRLPRPRPRPFIWPRP | 0.293
RRIRDRPPRLPRPRPRPFLDPRP | 0.431
RRIRDRPPRLPRPRPRPFLFPRP | 0.212

Sequence | shrunken log2 fold change
RRIRDRPPRLPRPRPRPFLRPRP | 0.00895
RRIRDRPPRLPRPRPRPFMDPRP | -0.112
RRIRDRPPRLPRPRPRPFMKPRP | -0.0698
RRIRDRPPRLPRPRPRPFNDPRP | -0.158
RRIRDRPPRLPRPRPRPFNSPRP | -0.0203
RRIRDRPPRLPRPRPRPFNWPRP | 0.0464
RRIRDRPPRLPRPRPRPFPCPRP | 0.0367
RRIRDRPPRLPRPRPRPFPKPRP | -0.201
RRIRDRPPRLPRPRPRPFPLPRP | 0.0517
RRIRDRPPRLPRPRPRPFQKPRP | 0.158
RRIRDRPPRLPRPRPRPFVCPRP | -0.213
RRIRDRPPRLPRPRPRPFVNPRP | -0.254
RRIRDRPPRLPRPRPRPFVQPRP | -0.194
RRIRDRPPRLPRPRPRPFWTPRP | -0.116
RRIRDRPPRLPRPRPRPFYGPRP | -0.108
RRIRDRPPRLPRPRPRPFYKPRP | -0.421
RRIRDRPPRLPRPRPRPGAKPRP | 0.592
RRIRDRPPRLPRPRPRPGANPRP | 0.19
RRIRDRPPRLPRPRPRPGCGPRP | 0.92
RRIRDRPPRLPRPRPRPGDAPRP | 0.207
RRIRDRPPRLPRPRPRPGFVPRP | 0.0977
RRIRDRPPRLPRPRPRPGGSPRP | 0.25
RRIRDRPPRLPRPRPRPGHDPRP | 0.207
RRIRDRPPRLPRPRPRPGICPRP | -0.0538
RRIRDRPPRLPRPRPRPGKQPRP | -0.0597

Sequence | shrunken log2 fold change
RRIRDRPPRLPRPRPRPGMHPRP | 0.0286
RRIRDRPPRLPRPRPRPGMMPRP | 0.0672
RRIRDRPPRLPRPRPRPGNHPRP | 0.0062
RRIRDRPPRLPRPRPRPGNLPRP | -0.0298
RRIRDRPPRLPRPRPRPGNRPRP | -0.0278
RRIRDRPPRLPRPRPRPGNTPRP | -0.165
RRIRDRPPRLPRPRPRPGPQPRP | -0.0494
RRIRDRPPRLPRPRPRPGQCPRP | 0.131
RRIRDRPPRLPRPRPRPGQTPRP | 0.032
RRIRDRPPRLPRPRPRPGRAPRP | 0.478
RRIRDRPPRLPRPRPRPGSNPRP | -0.153
RRIRDRPPRLPRPRPRPGWPPRP | 0.514
RRIRDRPPRLPRPRPRPGWSPRP | 0.104
RRIRDRPPRLPRPRPRPGWYPRP | 0.178
RRIRDRPPRLPRPRPRPHAAPRP | 0.458
RRIRDRPPRLPRPRPRPHEPPRP | 0.211
RRIRDRPPRLPRPRPRPHFGPRP | 0.0884
RRIRDRPPRLPRPRPRPHFQPRP | -0.236
RRIRDRPPRLPRPRPRPHFSPRP | -0.0977
RRIRDRPPRLPRPRPRPHGGPRP | 0.0317
RRIRDRPPRLPRPRPRPHGWPRP | 0.861
RRIRDRPPRLPRPRPRPHHKPRP | -0.397
RRIRDRPPRLPRPRPRPHIRPRP | 0.00704
RRIRDRPPRLPRPRPRPHLFPRP | 0.00233
RRIRDRPPRLPRPRPRPHPDPRP | -0.116
